Changes are numbered by the printed parent chain.
B1: SR360VD (PKC): EBNA2 with mutation of the putative PKC phosphorylation site (protein)
chain: MPTFYLALHGGQTYHLIVDTDSLGNPSLSVIPSNPYQEQLSDTPLIPLTIFVGENTGVPPPLPPPPPPPPPPPPPPPPPPPPPPPPPPSPPPPPPPPPPPQRRDAWTQEPSPLDRDPLGYDVGHGPLASAMRMLWMANYIVRQSRGDRGLILPQGPQTAPQARLVQPHVPPLRPTAPTILSPLSQPRLTPPQPLMMPPRPTPPTPLPPATLTVPPRPTRPTTLPPTPLLTVLQRPTELQPTPSPPRMHLPVLHVPDQSMHPLTHQSTPNDPDSPEPRSPTVFYNIPPMPLPPSQLPPPAAPAQPPPGVINDQQLHHLPSGPPWWPPICDPPQPSKTQGQSRGQSRGRGRGRGRGRGKGKVDDKQRKPGGPWRPEPNTSSPSMPELSPVLGLHQGQGAGDSPTPGPSNAAPVCRNSHTATPNVSPIHEPESHNSPEAPILFPDDWYPPSIDPADLDESWDYIFETTESPSSDEDYVEGPSKRPRPSIQ
B2: LGL389SRT (CR7): EBNA2 with LGL at position 389 in CR7 changed to SRT (protein)
chain: B1 chain with V360S, D361R, L389S, G390R, L391T

Experiments:
[1] = system: EBV latency C promoter (Cp-CAT); assay: Cp-CAT transactivation by EBNA2 effector DNAs cotransfected in DG75 cells; type: cell-based, Epstein-Barr virus; conditions: for transactivation of Cp-CAT, dose-response, in words: 0-2.0 μg effector DNA, 2 μg target; for % Transactivation: relative EBNA2 transactivation of the Cp, at DNA concentrations giving 50% acetylation for wild-type EBNA2, mutations in full-length EBNA2
Method: FIGS. 4A-4B are graphs that depict μg effector versus % acetylation for transactivation in DG75 cells of a Cp-CAT construction (Ling et al. (1993b), supra) cotransfected at 2 μg with increasing amounts (i.e., 0, 0.25, 0.5, 1.0 and 2.0 μg) of the indicated EBNA2 effector DNAs. Immunoblot analysis confirmed the equivalent expression of the different EBNA2 effector constructions in transfected cells.
FIGS. 7A-7B are graphs that depict μg effector versus fold-induction for cotransfection assays comparing the ability of type A EBNA2 and type B EBNA2 to transactivate expression from Cp-CAT (FIG. 7A) and CD23p-CAT (FIG. 7B) (Ling et al. (1994), supra) in DG75 cells. The target plasmids were transfected at a constant amount (2 μg) and the effector DNAs at increasing amounts of 0, 0.25, 0.5, 1.0 and 2.0 μg.
In order to correlate the effect of the mutations on CBF1 interaction measured in the in vitro binding assays with the effects on CBF1 interaction in vivo in cultured cells, the point mutations and the glycine-arginine deletion were incorporated into full-length EBNA2 proteins which were used to study EBNA2 targeting in transactivation assays. The mutant proteins were synthesized in equal abundance in transfected cells as assessed by Western blot analysis. FIGS. 4A and 4B compare the ability of wild-type and mutant EBNA2 proteins to transactivate expression from the EBV latency C promoter in a dose-response assay (Ling et al. (1993b), supra).

CBF1/RBPJk = target: T1, CBF1/RBPJk (Homo sapiens, UniProt Q06330); assay: EMSA of EBNA2/CBF1 complex formation with in vitro translated EBNA2 peptides; type: binding; conditions: for effect in reducing the amounts of EBNA2/CBF1 complex formed: fold, in words
T1 construct: EMSA using CBF1 purified by heparin-agarose chromatography; endogenous in cells; host or cells: CA46 cells (fractionated extract, heparin-agarose)
T1 sequence (Q06330 whole entry): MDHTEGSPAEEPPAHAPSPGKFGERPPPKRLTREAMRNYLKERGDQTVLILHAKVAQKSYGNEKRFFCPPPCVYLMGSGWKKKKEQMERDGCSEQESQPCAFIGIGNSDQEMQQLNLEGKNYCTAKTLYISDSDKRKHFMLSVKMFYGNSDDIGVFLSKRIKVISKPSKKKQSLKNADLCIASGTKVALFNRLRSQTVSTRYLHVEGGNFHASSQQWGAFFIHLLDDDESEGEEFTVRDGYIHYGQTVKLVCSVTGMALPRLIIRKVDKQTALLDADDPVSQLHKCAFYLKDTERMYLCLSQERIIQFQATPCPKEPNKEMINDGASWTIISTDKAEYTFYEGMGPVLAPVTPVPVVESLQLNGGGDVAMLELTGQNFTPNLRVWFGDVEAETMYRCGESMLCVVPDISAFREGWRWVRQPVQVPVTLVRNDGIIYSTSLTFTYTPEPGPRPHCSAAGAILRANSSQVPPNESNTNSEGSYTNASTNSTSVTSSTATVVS
From the text: FIG. 3 is an autoradiogram that depicts the effect of mutations on the ability of an EBNA2 (i.e., E2) peptide comprising amino acids 252-425 to interact with CBF1/RBPJk: probe (lane 1); E2 only (lane 2); lysate (lane 3); CBF1 (lane 4); CBF1 and lysate (lane 5); CBF1 and E2 252-425 (lane 6); CBF1 and del376-425 (lane 7); CBF1 and del343-425 (lane 8); CBF1 and del252-366 (lane 9); CBF1 and del252-309, del398-425 (lane 10); CBF1 and del344-357 (lane 11); CBF1 and II307SR (CR5) (lane 12); CBF1 and GP320SR (CR6) (lane 13); CBF1 and WW323SR (CR6) (lane 14); CBF1 and PI326SR (CR6) (lane 15); CBF1 and SR360VD (PKC) (lane 16); and CBF1 and LGL389SRT (CR7) (lane 17). Results of an EMSA using CBF1 purified by heparin-agarose chromatography and a 30-base pair oligonucleotide probe containing the Cp CBF1 binding site (Ling et al. (1993a), supra) are shown. The wild-type EBNA2 and mutant EBNA2 peptides spanning amino acids 252-425 were in vitro transcribed and translated, and equimolar amounts were added to the binding reactions. Addition of unprogrammed reticulocyte lysate to the CBF1 extract (+lysate) produced a minor bandshift that migrated in the range of the E2/CBF1 complex. The EBNA2/CBF1 complexes (i.e., E2/CBF1 complexes) vary in mobility depending on the size of the added EBNA2 peptide.
FIG. 6 is an EMSA that compares the ability of type A EBNA2 (i.e., EBNA2 comprising amino acids 252-425) and the homologous domains of type B (i.e., EBNA2 comprising amino acids 216-392) and HVP EBNA2 (i.e., HBP EBNA2 comprising amino acids 288-470) to form complexes with CBF1/RBPJk. The EBNA2 peptides and CBF1/RPBPJk were prepared by in vitro transcription and translation. EBNA2 peptides were added with two-fold increases in amount (black triangles) to a binding mixture containing a constant amount of CBF1/RBPJk and a 30-base pair Cp CBF1 binding site probe. Symbols: P, probe only; R, reticulolysate.
The relative positions of the various functional domains the EBNA2 protein are depicted in FIG. 1. To define the amino acids required for interaction with CBF1, various synthetic peptides comprising the promoter targeting domain (i.e., the CBF1/RBPJk interaction domain) were constructed. The truncated and mutated peptides diagrammed in FIG. 2 were synthesized by in vitro transcription-translation, and were tested for their ability to form complexes with CBF1 that could be detected in an electrophoretic mobility shift assay (EMSA) (Ling et al., J. Virol., 69, 1944-1950 (1995)). The expressed peptides were tested using a fractionated extract of EBV negative lymphoblastoid CA46 cells (American Type Culture Collection, Rockville, Md.). The peptides were labeled with ^35S-methionine, and their integrity was confirmed by sodium dodecylsulfate sulfate-polyacrylamide gel electrophoresis (SDS-PAGE). To ensure that equal amounts of the EBNA2 peptides were added to each binding reaction mixture, the SDS-PAGE bands were quantitated using a Molecular Dynamics Phosphorimager, and the volume of the samples was adjusted on the basis of peptide size and the number of methionine residues.

Molecule | transactivation of Cp-CAT, dose-response, in words [1] | % Transactivation [1] | reduction in EBNA2/CBF1 complex formation (CBF1/RBPJk; 252-425 peptide with mutation, relative to wild-type peptide) | effect in reducing the amounts of EBNA2/CBF1 complex formed (CBF1/RBPJk)
B1 | did not affect transactivation | 110% | 40% | approximately two-fold
B2 | did not affect transactivation | 100% |  | approximately two-fold

Reference: patent publication US6495144B2, “EBNA2 peptides and methods of using same” (Johns Hopkins University School of Medicine, priority 1996, dated 2002)
